Assay results as given in US20030100501A1 (CASE WESTERN RESERVE UNIVERSITY, published 2003).
Square brackets hold non-standard residues; d marks the D form. Ends that are not written are not given here. Nle = CCCC[C@H](N)C(=O)O

Assays:
[1] = molecular target: wild-type CFTR (cystic fibrosis transmembrane conductance regulator) (UniProt P13569 1-1480, limits assumed); test: cell-based or functional assay
mutant G551D CFTR = mutant G551D CFTR (UniProt P13569 1-1480, limits assumed); test: cell-based or functional assay
mutant G551D CFTR, sequence (P13569 whole entry G551D): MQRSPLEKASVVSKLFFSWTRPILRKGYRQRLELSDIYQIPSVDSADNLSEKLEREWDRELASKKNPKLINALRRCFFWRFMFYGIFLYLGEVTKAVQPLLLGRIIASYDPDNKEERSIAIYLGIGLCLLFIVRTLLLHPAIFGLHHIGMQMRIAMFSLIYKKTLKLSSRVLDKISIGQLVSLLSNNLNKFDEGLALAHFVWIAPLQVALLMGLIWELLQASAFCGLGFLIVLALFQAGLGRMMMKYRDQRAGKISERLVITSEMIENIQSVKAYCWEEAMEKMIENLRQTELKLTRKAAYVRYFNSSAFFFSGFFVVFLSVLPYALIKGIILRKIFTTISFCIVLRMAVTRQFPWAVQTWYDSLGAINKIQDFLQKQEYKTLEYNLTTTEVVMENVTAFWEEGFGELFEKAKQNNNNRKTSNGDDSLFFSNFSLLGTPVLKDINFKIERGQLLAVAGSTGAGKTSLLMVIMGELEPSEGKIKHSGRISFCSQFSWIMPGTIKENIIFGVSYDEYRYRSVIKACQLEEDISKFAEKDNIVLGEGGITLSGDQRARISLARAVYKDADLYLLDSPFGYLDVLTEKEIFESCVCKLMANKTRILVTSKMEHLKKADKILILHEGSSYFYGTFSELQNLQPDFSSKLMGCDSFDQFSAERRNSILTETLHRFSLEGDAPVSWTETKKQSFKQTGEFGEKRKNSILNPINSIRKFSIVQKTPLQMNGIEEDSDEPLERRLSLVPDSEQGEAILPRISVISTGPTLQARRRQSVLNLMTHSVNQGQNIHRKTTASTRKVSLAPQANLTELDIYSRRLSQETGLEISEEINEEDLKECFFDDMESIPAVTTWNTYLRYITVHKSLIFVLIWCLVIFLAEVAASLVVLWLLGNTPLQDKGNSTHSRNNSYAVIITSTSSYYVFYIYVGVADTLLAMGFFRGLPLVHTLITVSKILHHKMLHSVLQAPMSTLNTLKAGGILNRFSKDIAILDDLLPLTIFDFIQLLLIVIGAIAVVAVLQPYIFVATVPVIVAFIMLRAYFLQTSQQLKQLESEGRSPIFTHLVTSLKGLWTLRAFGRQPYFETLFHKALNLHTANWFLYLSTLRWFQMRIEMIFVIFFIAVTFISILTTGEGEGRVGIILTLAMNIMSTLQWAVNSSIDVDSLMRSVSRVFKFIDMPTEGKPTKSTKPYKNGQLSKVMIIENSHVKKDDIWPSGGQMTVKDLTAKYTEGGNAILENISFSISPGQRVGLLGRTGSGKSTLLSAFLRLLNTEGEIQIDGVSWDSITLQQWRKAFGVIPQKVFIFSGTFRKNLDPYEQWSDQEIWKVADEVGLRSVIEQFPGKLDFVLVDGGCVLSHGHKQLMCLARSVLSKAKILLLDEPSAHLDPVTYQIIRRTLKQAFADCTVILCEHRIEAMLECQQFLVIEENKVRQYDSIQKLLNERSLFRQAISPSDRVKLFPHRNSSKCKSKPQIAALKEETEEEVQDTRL

wild-type CFTR (cystic fibrosis transmembrane conductance regulator), sequence (P13569 whole entry): as the sequence (P13569 whole entry G551D) above, with D551G counted along it

open probability (Po) of CFTR channels in planar lipid bilayer [1]: 2 fold
open probability of single wt-CFTR channels in planar lipid bilayer, 4 µM peptide, 5 experiments [1]: ~2 fold
open probability in planar lipid bilayer (mutant G551D CFTR): ~3 fold
Binder: Ac-GLEISEQINQQNLKQSFFND[Nle]E [Q4N2NEG2 polypeptide]
